Measurements published in patent publication US7727960B2, “C5a receptor antagonists” (Jerini AG, priority 2003, dated 2010).

Target: T1, human C5aR (CD88) (human, UniProt P21730 1-350)
T1 sequence (looked up): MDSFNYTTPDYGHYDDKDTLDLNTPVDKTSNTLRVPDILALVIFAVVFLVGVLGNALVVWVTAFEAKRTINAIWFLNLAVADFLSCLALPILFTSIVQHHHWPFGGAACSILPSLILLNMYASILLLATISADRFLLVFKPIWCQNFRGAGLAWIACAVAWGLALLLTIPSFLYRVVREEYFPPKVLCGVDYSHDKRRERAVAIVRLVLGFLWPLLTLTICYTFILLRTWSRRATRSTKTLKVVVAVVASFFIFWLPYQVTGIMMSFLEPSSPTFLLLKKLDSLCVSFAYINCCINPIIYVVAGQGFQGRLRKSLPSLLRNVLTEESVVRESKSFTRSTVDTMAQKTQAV
Assay: cell-based or functional assay

Row | Substance | IC50 activity group, enzyme release assay [nM] | EC50, agonistic activity, enzyme release assay [nM]
1 | Ac-Phe-Orn-Pro-hle-Pff-2Ni-NH2 (peptide) | < 200 | –
2 | Ac-Phe-Orn-Hyp-hle-Pff-Phe-NH2 (peptide) | < 200 | –
3 | Ac-Phe-Cit-Pro-hle-Bta-Phe-NH2 (peptide) | < 50 | –
4 | H-Phe-[Orn-Hyp-hle-Pff-Hle] (peptide) | < 200 | –
5 | H-Phe-[Orn-Hyp-cha-Trp-Phe] (peptide) | < 50 | –
6 | H-Bal-Phe-[Orn-Pro-hle-Pff-Nle] (peptide) | < 200 | –
7 | Ac-Phe-[Orn-Pro-hle-Bta-Nle] (peptide) | < 200 | –
8 | Ac-Phe-Orn-NMA-cha-Bta-Phe-NH2 (peptide) | < 200 | –
9 | Ac-Mff-Orn-Pro-hle-Bta-Phe-NH2 (peptide) | < 200 | –
10 | Ac-Phe-Orn-Pro-hle-Bta-phe-OH (peptide) | < 200 | –
11 | Ac-Phe-Orn-Pro-hle-Egy-Phe-NH2 (peptide) | < 200 | –
12 | Ac-Phe-Orn-Ser-cha-Bta-Phe-NH2 (peptide) | < 50 | –
13 | Ac-Off-Orn-Pro-hle-Bta-Phe-NH2 (peptide) | < 50 | –
14 | Ac-Phe-Orn-Pro-hle-Mcf-Phe-NH2 (peptide) | < 200 | –
15 | Ac-Phe-Fcn-Pro-cha-Bta-Phe-NH2 (peptide) | < 20 | –
16 | Ac-Phe-Orn-Pro-cha-Bta-Bhf-NH2 (peptide) | < 50 | –
17 | Ac-Phe-Fcp-Aze-cha-Bta-Phe-NH2 (peptide) | < 50 | –
18 | Ac-Lys-Phe-Orn-Aze-cha-Bta-Phe-NH2 (peptide) | < 20 | –
19 | Ac-Orn-Phe-Orn-Aze-cha-Bta-Phe-NH2 (peptide) | < 200 | –
20 | Ac-Phe-Orn-Pro-cha-Bta-Cha-NH2 (peptide) | < 200 | –
21 | Ac-Phe-Orn-Pro-cha-Bta-1Ni-NH2 (peptide) | < 200 | –
22 | H-Phe-[Orn-Hyp-hle-Trp-Leu] (peptide) | < 50 | –
23 | Ac-Phe-Nle-Pro-cha-Bta-Phe-NH2 (peptide) | < 200 | –
24 | Ac-Phe-[Orn-NMD-cha-Trp-Nle] (peptide) | < 200 | –
25 | Ac-Phe-Orn-Pro-cha-Bta-Pcf-NH2 (peptide) | < 50 | –
26 | Ac-Gly-Thi-Orn-Aze-cha-Bta-Phe-NH2 (peptide) | < 50 | –
27 | FH2C-CO-Phe-Orn-Pro-cha-Bta-Phe-NH2 (peptide) | < 50 | –
28 | Ac-Phe-[Orn-Hyp-Mmf-Trp-Nle] (peptide) | < 200 | –

Row | Substance | IC50 activity group, enzyme release assay [nM] | EC50, agonistic activity, enzyme release assay [nM]
29 | Ac-Phe-Orn-Pro-hle-Pff-Pff-NH2 (peptide) | < 200 | –
30 | Ac-Arg-Phe-Orn-Aze-cha-Bta-Phe-NH2 (peptide) | < 50 | –
31 | H-Nip-Phe-Cit-Pro-hle-Bta-Phe-NH2 (peptide) | < 200 | –
32 | Ac-Phg-Orn-Pro-cha-Bta-Phe-NH2 (peptide) | < 200 | –
33 | H-Phe-[Orn-Hyp-hle-Pff-Phe] (peptide) | < 200 | –
34 | Ac-Phe-Orn-Pro-hle-Bta-Eaa-NH2 (peptide) | < 200 | –
35 | Ac-Gly-Phe-Orn-Aze-hch-Bta-Phe-NH2 (peptide) | < 200 | –
36 | Ac-Phe-Orn-Pro-hle-1Ni-Phe-NH2 (peptide) | < 50 | –
37 | Ac-Phe-Dab-Aze-cha-Bta-Phe-NH2 (peptide) | < 50 | –
38 | Ac-Phe-[Orn-Hyp-cha-Trp-Nle] (peptide) | < 20 | –
39 | Ac-Phe-[Orn-Pip-hle-Bta-Phe] (peptide) | < 200 | –
40 | H-Phe-[Orn-Pro-hle-Ocf-Phe] (peptide) | < 200 | –
41 | Ac-Phe-Orn-Pro-hle-Pff-Cha-NH2 (peptide) | < 200 | –
42 | Ac-Phe-Cit-Hyp-hle-Bta-Phe-NH2 (peptide) | < 200 | –
43 | Ac-Phe-Orn-Pro-hle-Bta-Egy-NH2 (peptide) | < 200 | –
44 | H-Phe-[Orn-NMS-hle-Pff-Phe] (peptide) | < 200 | –
45 | Ac-Phe-Orn-Pro-hle-Off-Phe-NH2 (peptide) | < 200 | –
46 | Ac-Thr-Phe-Orn-Aze-cha-Bta-Phe-NH2 (peptide) | < 50 | –
47 | Ac-Phe-[Orn-Hyp-hle-Bta-Phe] (peptide) | < 200 | –
48 | Ac-Phe-Orn-Pro-hle-Pff-Eaa-NH2 (peptide) | < 200 | –
49 | Ac-Phe-Orn-Pro-hle-Pff-Phe-NH2 (peptide) | < 200 | –
50 | Ac-Phe-[Orn-Chy-cha-Trp-Nle] (peptide) | < 200 | –
51 | Bzl-[Orn-Pro-cha-Bta-Nle] (peptide) | < 200 | –
52 | hrC5a (from UniProt P01031 678-751) (ligand) | – | 2.4
53 | Ac-Phe-Orn-Pro-cha-Bta-Eaa-NH2 (peptide) | < 200 | –
54 | Ac-Gly-Phe-Orn-Aze-chg-Bta-Phe-NH2 (peptide) | < 200 | –
55 | H-Phe-[Orn-Ser-hle-Pff-Leu] (peptide) | < 200 | –

Other lines, results leading:

Row | IC50 activity group, enzyme release assay [nM] | EC50, agonistic activity, enzyme release assay [nM] | Substance
56 | < 200 | – | Ac-Phe-Orn-Pro-hle-Bta-Tyr-NH2 (peptide)
57 | < 200 | – | H-Phe-[Orn-Ser-hle-Pff-Phe] (peptide)
58 | < 20 | – | Ac-Phe-Orn-Pro-hle-Bta-Phe-NH2 (peptide)
59 | < 200 | – | Ac-Phe-Orn-Pro-hle-Tff-Phe-NH2 (peptide)
60 | < 200 | – | Ac-Phe-Orn-Pro-hle-Egz-Phe-NH2 (peptide)
61 | < 50 | > 100000 | Ac-Thi-Orn-Pip-cha-Bta-Phe-NH2 (peptide)
62 | < 200 | – | Ac-Phe-[Orn-Pro-hle-Bta-Phe] (peptide)
63 | < 200 | – | Ac-Phe-Orn-Pro-hle-Dff-Phe-NH2 (peptide)
64 | < 50 | – | Ac-Thi-Orn-Pro-cha-Bta-Thi-NH2 (peptide)
65 | < 200 | – | Ac-Phe-Orn-Pro-hle-Otf-Phe-NH2 (peptide)
66 | < 200 | – | Ac-Phe-Orn-Pro-hle-Mcf-Pff-NH2 (peptide)
67 | < 200 | – | Ac-Phe-Orn-Pro-hle-Eaa-Phe-NH2 (peptide)
68 | < 200 | – | Ac-Phe-Orn-Pro-cha-Bta-NH-CH(CH2OH)-CH2-Ph (peptide)
69 | < 50 | – | Ac-Phe-Orn-Pro-hle-Mcf-Cha-NH2 (peptide)
70 | < 200 | – | tBu-CO-Phe-Orn-Pro-cha-Bta-Phe-NH2 (peptide)
71 | < 200 | – | Ac-Phe-Orn-Aze-cha-Mcf-Phe-NH2 (peptide)
72 | < 200 | – | Ac-Phe-Orn-Pro-hle-Pff-Mmy-NH2 (peptide)
73 | < 50 | – | Ac-Hyp-Phe-Orn-Aze-cha-Bta-Phe-NH2 (peptide)
74 | < 200 | – | Ac-Phe-Orn-Pro-hle-6FW-Phe-NH2 (peptide)
75 | < 200 | – | (-CO-CH2-NH-CO-)-Phe-Orn-Pro-cha-Bta-Phe-NH2 (peptide)
76 | < 200 | – | H-Bal-Phe-[Orn-Hyp-hle-Trp-Nle] (peptide)

Row | IC50 activity group, enzyme release assay [nM] | EC50, agonistic activity, enzyme release assay [nM] | Substance
77 | < 20 | – | Ac-Ser-Phe-Orn-Aze-cha-Bta-Phe-NH2 (peptide)
78 | < 200 | – | H-Phe-[Orn-Pro-cha-Pff-Phe] (peptide)
79 | < 200 | – | Ac-Phe-Orn-Chy-cha-Bta-Phe-NH2 (peptide)
80 | < 200 | – | Ac-Phe-Orn-Pro-hle-Mff-Phe-NH2 (peptide)
81 | < 2000 | – | Ac-Phe-Paf-Pro-cha-Bta-Phe-NH2 (peptide)
82 | < 200 | – | Ac-Phe-[Orn-HyA-cha-Trp-Phe] (peptide)
83 | < 200 | – | Ac-Phe-Eec-Pro-cha-Bta-Phe-NH2 (peptide)
84 | < 200 | – | Ac-Phe-Orn-Pro-ctb-Mcf-Phe-NH2 (peptide)
85 | < 50 | – | Ac-Phe-Orn-Pro-cha-Bta-Dff-NH2 (peptide)
86 | < 200 | – | Ac-Phe-Orn-Chy-hle-Pff-Phe-NH2 (peptide)
87 | < 2000 | – | Ac-Phe-Orn-Aze-cha-Bta-NH-CH2-CH2-Ph (peptide)
88 | < 200 | – | Ac-Phe-Orn-Pro-cha-Otf-Phe-NH2 (peptide)
89 | < 50 | – | H-Phe-[Orn-Ser-hle-Pff-Nle] (peptide)
90 | < 20 | – | Ac-Phe-Fcn-Aze-cha-Bta-Phe-NH2 (peptide)
91 | < 200 | – | Ac-Pff-Orn-Pro-hle-Mcf-Pff-NH2 (peptide)
92 | < 200 | – | Ac-Phe-Orn-Pro-omf-Bta-Phe-NH2 (peptide)
93 | < 200 | – | Ac-Phe-Orn-Pro-hle-Ocf-Phe-NH2 (peptide)
94 | < 200 | – | Ac-Phe-Orn-Pro-cha-Bta-Mcf-NH2 (peptide)
95 | < 200 | – | H-Phe-[Orn-Hyp-hle-Pff-Leu] (peptide)
96 | < 200 | – | H-Phe-[Orn-Ser-hle-Mcf-Leu] (peptide)
97 | < 200 | – | Ac-Phe-[Orn-Hyp-hle-Mcf-Phe] (peptide)
